In experiment [1] the target is eEF1B(αβγ)3 complex, reconstituted from full-length eEF1Bα, eEF1Bβ and eEF1Bγ (human, UniProt P24534 1-225; P29692 1-281; P26641 1-437). As to the kind of experiment: native gel or EMSA.
Experiment [2] concerns the target T1, translation elongation factor eEF1Bβ, full-length (human), P29692.
T1 chain: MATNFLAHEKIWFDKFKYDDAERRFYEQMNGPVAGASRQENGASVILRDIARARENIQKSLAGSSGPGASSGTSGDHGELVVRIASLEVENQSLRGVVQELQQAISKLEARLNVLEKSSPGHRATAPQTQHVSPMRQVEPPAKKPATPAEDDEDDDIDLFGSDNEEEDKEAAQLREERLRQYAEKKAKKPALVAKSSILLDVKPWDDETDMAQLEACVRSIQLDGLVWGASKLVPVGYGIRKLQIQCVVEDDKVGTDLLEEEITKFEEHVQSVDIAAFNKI
Kind of experiment: AUC. The conditions noted are these: remark: other sources report otherwise.

Experiment [3] addresses T1, translation elongation factor eEF1Bβ, …. Kind of experiment: AUC. As to conditions: remark: other sources report otherwise.
Experiment [4] has the same target. Kind of experiment: AUC. The conditions noted are these: remark: other sources report otherwise.

The text below walks through data of publication PMC9458455 (Nucleic Acids Research, 2022).

Chain of eEF1B(αβγ)3 complex, reconstituted from full-length eEF1Bα, eEF1Bβ and eEF1Bγ (P24534 whole entry, chain 1 of 2): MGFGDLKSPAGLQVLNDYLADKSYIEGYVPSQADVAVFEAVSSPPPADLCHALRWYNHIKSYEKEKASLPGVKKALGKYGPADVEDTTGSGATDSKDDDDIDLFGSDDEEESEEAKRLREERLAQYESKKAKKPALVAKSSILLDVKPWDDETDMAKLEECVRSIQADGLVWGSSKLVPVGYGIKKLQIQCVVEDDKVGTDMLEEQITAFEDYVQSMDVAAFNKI
Chain of eEF1B(αβγ)3 complex, reconstituted from full-length eEF1Bα, eEF1Bβ and eEF1Bγ (P26641 whole entry, chain 3 of 2): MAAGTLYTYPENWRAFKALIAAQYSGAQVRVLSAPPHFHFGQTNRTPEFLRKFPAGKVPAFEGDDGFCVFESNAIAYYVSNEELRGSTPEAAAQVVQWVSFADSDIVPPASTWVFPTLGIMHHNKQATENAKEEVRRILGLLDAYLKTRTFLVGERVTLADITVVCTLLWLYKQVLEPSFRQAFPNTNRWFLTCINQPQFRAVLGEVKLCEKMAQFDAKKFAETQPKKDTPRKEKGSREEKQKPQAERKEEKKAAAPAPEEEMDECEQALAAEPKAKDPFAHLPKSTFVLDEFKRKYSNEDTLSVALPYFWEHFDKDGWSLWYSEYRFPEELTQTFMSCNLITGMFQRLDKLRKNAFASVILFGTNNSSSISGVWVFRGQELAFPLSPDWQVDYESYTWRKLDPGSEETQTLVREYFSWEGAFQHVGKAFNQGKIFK

B1: translation elongation factor eEF1A2 (natural protein, UniProt Q05639 1-463, looked up)
chain: MGKEKTHINIVVIGHVDSGKSTTTGHLIYKCGGIDKRTIEKFEKEAAEMGKGSFKYAWVLDKLKAERERGITIDISLWKFETTKYYITIIDAPGHRDFIKNMITGTSQADCAVLIVAAGVGEFEAGISKNGQTREHALLAYTLGVKQLIVGVNKMDSTEPAYSEKRYDEIVKEVSAYIKKIGYNPATVPFVPISGWHGDNMLEPSPNMPWFKGWKVERKEGNASGVSLLEALDTILPPTRPTDKPLRLPLQDVYKIGGIGTVPVGRVETGILRPGMVVTFAPVNITTEVKSVEMHHEALSEALPGDNVGFNVKNVSVKDIRRGNVCGDSKSDPPQEAAQFTSQVIILNHPGQISAGYSPVIDCHTAHIACKFAELKEKIDRRSGKKLEDNPKSLKSGDAAIVEMVPGKPMCVESFSQYPPLGRFAVRDMRQTVAVGVIKNVEKKSGGAGKVTKSAQKAQKAGK
For B1, the “stoichiometry N” value in experiment [1] was found to be 6.

B2: translation elongation factor eEF1Bβ, full-length, P29692 1-281 (natural protein)
chain: T1 chain
As for B2, the stoichiometry N in experiment [2], in experiment [3] and in experiment [4] was 3 in each case.
